The values below come from paper PMC10495429, “Discovery of L-threonine transaldolases for enhanced biosynthesis of beta-hydroxylated amino acids” (Communications Biology, 2023).

One data set has as its system T1, PbTTA.
T1 construct: N-terminal hexahistidine-SUMO tag with TEV site kept (screen done with SUMO fusion intact), E. coli BL21
Briefly: TTA-ADH coupled assay (NADH depletion at […] nm), non-linear regression. In kind it is biochemical. The note with it: 1 mM phenylacetaldehyde (non-saturating), PLP, MgCl2, phosphate pH 7.5, 30 °C; read-out: apparent KM.

A further data set relates to C[C@@H](O)[C@H](N)C(=O)O. Nature of the data set: purified protein. Particulars: 1 mM phenylacetaldehyde (non-saturating), PLP, MgCl2, phosphate pH 7.5, 30 °C.
Substrate in the data set “purified protein”: C[C@@H](O)[C@H](N)C(=O)O
Briefly: purified protein. It is filed as biochemical, Pseudomonas fluorescens. The note with it: 1 mM phenylacetaldehyde (non-saturating), PLP, MgCl2, phosphate pH 7.5, 30 °C.

Consider `C[C@@H](O)[C@H](N)C(=O)O` [L-Thr], for which the Km in the data set on PbTTA was 10.9 mM.
With PiTTA (Pseudomonas sp. Irchel s3a18), in the data set on C[C@@H](O)[C@H](N)C(=O)O, the Km is 35.8 (21.0, 41.5) mM and the kcat is 276.4 (260, 294.7) min-1.
For s-KaTTA (Kitasatospora aureofaciens), the Km in the data set on C[C@@H](O)[C@H](N)C(=O)O amounted to 19.1 mM.

B1: ObiH (Pseudomonas fluorescens) (protein)
chain: MSNVKQQTAQIVDWLSSTLGKDHQYREDSLSLTANENYPSALVRLTSGSTAGAFYHCSFPFEVPAGEWHFPEPGHMNAIADQVRDLGKTLIGAQAFDWRPNGGSTAEQALMLAACKPGEGFVHFAHRDGGHFALESLAQKMGIEIFHLPVNPTSLLIDVAKLDEMVRRNPHIRIVILDQSFKLRWQPLAEIRSVLPDSCTLTYDMSHDGGLIMGGVFDSPLSCGADIVHGNTHKTIPGPQKGYIGFKSAQHPLLVDTSLWVCPHLQSNCHAEQLPPMWVAFKEMELFGRDYAAQIVSNAKTLARHLHELGLDVTGESFGFTQTHQVHFAVGDLQKALDLCVNSLHAGGIRSTNIEIPGKPGVHGIRLGVQAMTRRGMKEKDFEVVARFIADLYFKKTEPAKVAQQIKEFLQAFPLAPLAYSFDNYLDEELLAAVYQGAQR
notes: N-terminal hexahistidine tag, expressed in E. coli BL21, codon-optimised gene; tag kept
As for B1, the Km in the data set “purified protein” was 29.5 mM.
